Test results reported in patent US20260217833A1 (APTEVO RESEARCH AND DEVELOPMENT, published 2026).

B1: CD4001064 (PDL_5F9 x hFc x CD40_2H7) (bispecific antibody)
chain: EVQLVESGGGLVKPGGSLRLSCAASGFTFSDYGMAWVRQAPGKGLEWVAFITSLAYIIYYADSVKGRFTISRDNAKNSLYLQMNSLRAEDTAVYYCARNYGSSPYYFDYWGQGTLVTVSSGGGGSGGGGSGGGGSGGGGSDIQMTQSPSSLSASVGDRVTITCRASQDINKFLSWYQQKPGKAPKLLIHYTSSLQPGVPSRFSGSGSGTDFTLTISSLQPEDFATYYCLQYDNLYTFGQGTKLEIKEPKSSDKTHTCPPCPAPPAAAPSVFLFPPKPKDTLMISRTPEVTCVVVDVSHEDPEVKFNWYVDGVEVHNAKTKPREEQYNSTYRVVSVLTVLHQDWLNGKEYKCAVSNKALPAPIEKTISKAKGQPREPQVYTLPPSRDELTKNQVSLTCLVKGFYPSDIAVEWESNGQPENNYKTTPPVLDSDGSFFLYSKLTVDKSRWQQGNVFSCSVMHEALHNHYTQKSLSLSPGGGGSPSDIVMTQSHKFMSTSVGDRVSITCKASQDVNTAVAWYQQKPGQSPKLLIYSASYRYTGVPDRFTGSGSGTDFTFTISSVQAEDLAVYYCQQHYSTPWTFGGGTKLEIKGGGGSGGGGSGGGGSGGGGSQVQLQQSGAELAKPGASVKMSCKASGYAFTTYWMHWVKQRPGQGLEWIGYINPTTGYTDYNQKFKDKATLTADKSSSTAYMQLSSLTSEDSAVYYCARWGLPPFAYWGQGTLVTVSA
notes: ADAPTIR format, anti-PD-L1 scFv on N-terminus, anti-CD40 scFv on C-terminus; also called CD4001064 (2H7)
B2: CD4001066 (PDL_5F9 x hFc x CD40_1D5) (bispecific antibody)
chain: EVQLVESGGGLVKPGGSLRLSCAASGFTFSDYGMAWVRQAPGKGLEWVAFITSLAYIIYYADSVKGRFTISRDNAKNSLYLQMNSLRAEDTAVYYCARNYGSSPYYFDYWGQGTLVTVSSGGGGSGGGGSGGGGSGGGGSDIQMTQSPSSLSASVGDRVTITCRASQDINKFLSWYQQKPGKAPKLLIHYTSSLQPGVPSRFSGSGSGTDFTLTISSLQPEDFATYYCLQYDNLYTFGQGTKLEIKEPKSSDKTHTCPPCPAPPAAAPSVFLFPPKPKDTLMISRTPEVTCVVVDVSHEDPEVKFNWYVDGVEVHNAKTKPREEQYNSTYRVVSVLTVLHQDWLNGKEYKCAVSNKALPAPIEKTISKAKGQPREPQVYTLPPSRDELTKNQVSLTCLVKGFYPSDIAVEWESNGQPENNYKTTPPVLDSDGSFFLYSKLTVDKSRWQQGNVFSCSVMHEALHNHYTQKSLSLSPGGGGSPSDIVMSQSPSSLAVSVGEKVTMSCKSSQSLLFSVNQKNYLAWYQQKPGQSPKLLIYWASTRESGVPDRFTGSGSGTDFTLTIGSVKAEDLAVYYCQHYYSYPWTFGGGTKLEIKGGGGSGGGGSGGGGSGGGGSQVQLQQSGAELMNPGASVRISCKATGYTFSTSWIEWIKQRPGHGLEWIGEILPGSGSTNYNEKFKGKATFTADTSSNTAYMQLSSLTFEDSAVYYCARGDDGSYVRWYFDVWGAGTTVTVSS
notes: ADAPTIR format, anti-PD-L1 scFv on N-terminus, anti-CD40 scFv on C-terminus; also called CD4001066 (1D5)
B3: CD4001067 (bispecific antibody)
PDL_5F9 x Fc-Knob: EVQLVESGGGLVKPGGSLRLSCAASGFTFSDYGMAWVRQAPGKGLEWVAFITSLAYIIYYADSVKGRFTISRDNAKNSLYLQMNSLRAEDTAVYYCARNYGSSPYYFDYWGQGTLVTVSSGGGGSGGGGSGGGGSGGGGSDIQMTQSPSSLSASVGDRVTITCRASQDINKFLSWYQQKPGKAPKLLIHYTSSLQPGVPSRFSGSGSGTDFTLTISSLQPEDFATYYCLQYDNLYTFGQGTKLEIKEPKSSDKTHTCPPCPAPPAAAPSVFLFPPKPKDTLMISRTPEVTCVVVDVSHEDPEVKFNWYVDGVEVHNAKTKPREEQYNSTYRVVSVLTVLHQDWLNGKEYKCAVSNKALPAPIEKTISKAKGQPREPQVYTLPPSRDELTKNQVSLWCLVKGFYPSDIAVEWESNGQPENNYKTTPPVLDSDGSFFLYSKLTVDKSRWQQGNVFSCSVMHEALHNHYTQKSLSLSPG
CD40_2H7 x Fc-Hole: DIVMTQSHKFMSTSVGDRVSITCKASQDVNTAVAWYQQKPGQSPKLLIYSASYRYTGVPDRFTGSGSGTDFTFTISSVQAEDLAVYYCQQHYSTPWTFGGGTKLEIKGGGGSGGGGSGGGGSGGGGSQVQLQQSGAELAKPGASVKMSCKASGYAFTTYWMHWVKQRPGQGLEWIGYINPTTGYTDYNQKFKDKATLTADKSSSTAYMQLSSLTSEDSAVYYCARWGLPPFAYWGQGTLVTVSAEPKSSDKTHTCPPCPAPPAAAPSVFLFPPKPKDTLMISRTPEVTCVVVDVSHEDPEVKFNWYVDGVEVHNAKTKPREEQYNSTYRVVSVLTVLHQDWLNGKEYKCAVSNKALPAPIEKTISKAKGQPREPQVYTLPPSRDELTKNQVSLSCAVKGFYPSDIAVEWESNGQPENNYKTTPPVLDSDGSFFLVSKLTVDKSRWQQGNVFSCSVMHEALHNRFTQKSLSLSPG
B4: CD4001069 (bispecific antibody)
PDL_5F9 x Fc-Knob: EVQLVESGGGLVKPGGSLRLSCAASGFTFSDYGMAWVRQAPGKGLEWVAFITSLAYIIYYADSVKGRFTISRDNAKNSLYLQMNSLRAEDTAVYYCARNYGSSPYYFDYWGQGTLVTVSSGGGGSGGGGSGGGGSGGGGSDIQMTQSPSSLSASVGDRVTITCRASQDINKFLSWYQQKPGKAPKLLIHYTSSLQPGVPSRFSGSGSGTDFTLTISSLQPEDFATYYCLQYDNLYTFGQGTKLEIKEPKSSDKTHTCPPCPAPPAAAPSVFLFPPKPKDTLMISRTPEVTCVVVDVSHEDPEVKFNWYVDGVEVHNAKTKPREEQYNSTYRVVSVLTVLHQDWLNGKEYKCAVSNKALPAPIEKTISKAKGQPREPQVYTLPPSRDELTKNQVSLWCLVKGFYPSDIAVEWESNGQPENNYKTTPPVLDSDGSFFLYSKLTVDKSRWQQGNVFSCSVMHEALHNHYTQKSLSLSPG
CD40_1D5 x Fc-Hole: DIVMSQSPSSLAVSVGEKVTMSCKSSQSLLFSVNQKNYLAWYQQKPGQSPKLLIYWASTRESGVPDRFTGSGSGTDFTLTIGSVKAEDLAVYYCQHYYSYPWTFGGGTKLEIKGGGGSGGGGSGGGGSGGGGSQVQLQQSGAELMNPGASVRISCKATGYTFSTSWIEWIKQRPGHGLEWIGEILPGSGSTNYNEKFKGKATFTADTSSNTAYMQLSSLTFEDSAVYYCARGDDGSYVRWYFDVWGAGTTVTVSSEPKSSDKTHTCPPCPAPPAAAPSVFLFPPKPKDTLMISRTPEVTCVVVDVSHEDPEVKFNWYVDGVEVHNAKTKPREEQYNSTYRVVSVLTVLHQDWLNGKEYKCAVSNKALPAPIEKTISKAKGQPREPQVYTLPPSRDELTKNQVSLSCAVKGFYPSDIAVEWESNGQPENNYKTTPPVLDSDGSFFLVSKLTVDKSRWQQGNVFSCSVMHEALHNRFTQKSLSLSPG
B5: CD4001071 (bispecific antibody)
Fc-Knob x PDL_5F9: EPKSSDKTHTCPPCPAPPAAAPSVFLFPPKPKDTLMISRTPEVTCVVVDVSHEDPEVKFNWYVDGVEVHNAKTKPREEQYNSTYRVVSVLTVLHQDWLNGKEYKCAVSNKALPAPIEKTISKAKGQPREPQVYTLPPSRDELTKNQVSLWCLVKGFYPSDIAVEWESNGQPENNYKTTPPVLDSDGSFFLYSKLTVDKSRWQQGNVFSCSVMHEALHNHYTQKSLSLSPGGGGSPSEVQLVESGGGLVKPGGSLRLSCAASGFTFSDYGMAWVRQAPGKGLEWVAFITSLAYIIYYADSVKGRFTISRDNAKNSLYLQMNSLRAEDTAVYYCARNYGSSPYYFDYWGQGTLVTVSSGGGGSGGGGSGGGGSGGGGSDIQMTQSPSSLSASVGDRVTITCRASQDINKFLSWYQQKPGKAPKLLIHYTSSLQPGVPSRFSGSGSGTDFTLTISSLQPEDFATYYCLQYDNLYTFGQGTKLEIK
CD40_5B9 x Fc-Hole x PDL_5F9: DVVMTQTPLSLPVSLGDQASISCRSSQSLVHYNGYTYLHWYLQKPGQSPKLLIYKVSNRFSGVPDRFSGSGSGTDFTLKISRVEAEDLGVYFCSQTTHVPLTFGAGTKLELRGGGGSGGGGSGGGGSGGGGSEVMLVESGGGLVKPGGSLKLSCAASGFTFSSYAMSWVRQTPERRLEWVASISSAGTYIYYPDSVKGRFTISRDNAKNILYLQMNSLRSEDTAMYYCARHGNGYDPLWYFDVWGAGTTVTVSSEPKSSDKTHTCPPCPAPPAAAPSVFLFPPKPKDTLMISRTPEVTCVVVDVSHEDPEVKFNWYVDGVEVHNAKTKPREEQYNSTYRVVSVLTVLHQDWLNGKEYKCAVSNKALPAPIEKTISKAKGQPREPQVYTLPPSRDELTKNQVSLSCAVKGFYPSDIAVEWESNGQPENNYKTTPPVLDSDGSFFLVSKLTVDKSRWQQGNVFSCSVMHEALHNRFTQKSLSLSPGGGGSPSEVQLVESGGGLVKPGGSLRLSCAASGFTFSDYGMAWVRQAPGKGLEWVAFITSLAYIIYYADSVKGRFTISRDNAKNSLYLQMNSLRAEDTAVYYCARNYGSSPYYFDYWGQGTLVTVSSGGGGSGGGGSGGGGSGGGGSDIQMTQSPSSLSASVGDRVTITCRASQDINKFLSWYQQKPGKAPKLLIHYTSSLQPGVPSRFSGSGSGTDFTLTISSLQPEDFATYYCLQYDNLYTFGQGTKLEIK
B6: CD4001072 (bispecific antibody)
Fc-Knob x PDL_5F9: EPKSSDKTHTCPPCPAPPAAAPSVFLFPPKPKDTLMISRTPEVTCVVVDVSHEDPEVKFNWYVDGVEVHNAKTKPREEQYNSTYRVVSVLTVLHQDWLNGKEYKCAVSNKALPAPIEKTISKAKGQPREPQVYTLPPSRDELTKNQVSLWCLVKGFYPSDIAVEWESNGQPENNYKTTPPVLDSDGSFFLYSKLTVDKSRWQQGNVFSCSVMHEALHNHYTQKSLSLSPGGGGSPSEVQLVESGGGLVKPGGSLRLSCAASGFTFSDYGMAWVRQAPGKGLEWVAFITSLAYIIYYADSVKGRFTISRDNAKNSLYLQMNSLRAEDTAVYYCARNYGSSPYYFDYWGQGTLVTVSSGGGGSGGGGSGGGGSGGGGSDIQMTQSPSSLSASVGDRVTITCRASQDINKFLSWYQQKPGKAPKLLIHYTSSLQPGVPSRFSGSGSGTDFTLTISSLQPEDFATYYCLQYDNLYTFGQGTKLEIK
CD40_1D5 x Fc-Hole x PDL_5F9: DIVMSQSPSSLAVSVGEKVTMSCKSSQSLLFSVNQKNYLAWYQQKPGQSPKLLIYWASTRESGVPDRFTGSGSGTDFTLTIGSVKAEDLAVYYCQHYYSYPWTFGGGTKLEIKGGGGSGGGGSGGGGSGGGGSQVQLQQSGAELMNPGASVRISCKATGYTFSTSWIEWIKQRPGHGLEWIGEILPGSGSTNYNEKFKGKATFTADTSSNTAYMQLSSLTFEDSAVYYCARGDDGSYVRWYFDVWGAGTTVTVSSEPKSSDKTHTCPPCPAPPAAAPSVFLFPPKPKDTLMISRTPEVTCVVVDVSHEDPEVKFNWYVDGVEVHNAKTKPREEQYNSTYRVVSVLTVLHQDWLNGKEYKCAVSNKALPAPIEKTISKAKGQPREPQVYTLPPSRDELTKNQVSLSCAVKGFYPSDIAVEWESNGQPENNYKTTPPVLDSDGSFFLVSKLTVDKSRWQQGNVFSCSVMHEALHNRFTQKSLSLSPGGGGSPSEVQLVESGGGLVKPGGSLRLSCAASGFTFSDYGMAWVRQAPGKGLEWVAFITSLAYIIYYADSVKGRFTISRDNAKNSLYLQMNSLRAEDTAVYYCARNYGSSPYYFDYWGQGTLVTVSSGGGGSGGGGSGGGGSGGGGSDIQMTQSPSSLSASVGDRVTITCRASQDINKFLSWYQQKPGKAPKLLIHYTSSLQPGVPSRFSGSGSGTDFTLTISSLQPEDFATYYCLQYDNLYTFGQGTKLEIK

Target: T1, Human PD-L1 full-length (human, UniProt Q9NZQ7 19-290)
T1 construct: also called PDL01021; CHOK1SV/huPDL1
Assay: flow cytometry, CHOK1SV/human PD-L1 cells

T1 sequence (Q9NZQ7 19-290): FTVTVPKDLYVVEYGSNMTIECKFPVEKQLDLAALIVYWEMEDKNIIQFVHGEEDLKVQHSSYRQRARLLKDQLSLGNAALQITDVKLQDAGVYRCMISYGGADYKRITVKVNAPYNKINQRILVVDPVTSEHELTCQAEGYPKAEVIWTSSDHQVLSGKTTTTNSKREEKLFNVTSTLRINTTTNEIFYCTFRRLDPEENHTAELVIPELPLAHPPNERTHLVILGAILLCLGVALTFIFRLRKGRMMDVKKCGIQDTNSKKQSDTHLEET

| Binder | binding result |
| --- | --- |
| B1 | binds |
| B2 | binds |
| B3 | binds |
| B4 | binds |
| B5 | binds |
| B6 | binds |
